Patent US20250179429A1, “CELL CULTURE MEDIUM” (Auckland UniServices Limited, priority 2017, published 2025)
Read-outs that look alike come from different tables or passages of the source.

Test system: Human primary keratinocytes
Test: Keratinocyte growth in culture media: rhodamine B staining, confluency measured with Operetta plate reader
Type: cell-based

B1: KGF: Keratinocyte growth factor, encoded in humans by the FGF7 gene, binds FGFR2b (protein, UniProt P21781 32-194, looked up)
Fibroblast growth factor 7: CNDMTPEQMATNVNCSSPERHTRSYDYMEGGDIRVRRLFCRTQWYLRIDKRGKVKGTQEMKNNYNIMEIRTVAVGIVAIKGVESEFYLAMNKEGKLYAKKECNEDCNFKELILENHYNTYASAKWTHNGGEMFVALNQKGIPVRGKKTKKEQKTAHFLPMAIT
  effect of added KGF on keratinocyte growth, FIG. 1: cannot rescue the growth
Added to Green's media + Y27632
  effect of added KGF on keratinocyte growth, FIG. 1: fails to enhance keratinocyte growth
Added to base media + Y27632
  effect of added KGF on keratinocyte growth, FIG. 1: stimulates growth
In the presence of ROCK inhibitor SB772077B, no MEFs
  effect of adding KGF to Base medium on keratinocyte growth, FIG. 2: critical component in Kelch's medium
